B1: library; numbered along this chain (parent)
chain: MRKPRAAVGSGHRKQAASQEGRQKHAKNNSQAKPSACDGLARQPEEVVLQASVSSYHLFRDVAEVTAFRGSLLSWYDQEKRDLPWRRRAEDEMDLDRRAYAVWVSEVMLQQTQVATVINYYTGWMQKWPTLQDLASASLEEVNQLWAGLGYYSRGRRLQEGARKVVEELGGHMPRTAETLQQLLPGVGRYTAGAIASIAFGQATGVVDGNVARVLCRVRAIGADPSSTLVSQQLWGLAQQLVDPARPGDFNQAAMELGATVCTPQRPLCSQCPVESLCRARQRVEQEQLLASGSLSGSPDVEECAPNTGQCHLCLPPSEPWDQTLGVVNFPRKASRKPPREESSATCVLEQPGALGAQILLVQRPNSGLLAGLWEFPSVTWEPSEQLQRKALLQELQRWAGPLPATHLRHLGEVVHTFSHIKLTYQVYGLALEGQTPVTTVPPGARWLTQEEFHTAAVSTAMKKVFRVYQGQQPGTCMGSKRSQVSSPCSRKKPRMGQQVLDNFFRSHISTDAHSLNSAAQ

Variants of: B1
Experiment: 8OG:A repair function score (normalized; synonymous = 0, nonsense = -1) (normalized log-likelihood score); higher = more repair activity (WT-like)
Conditions: with 8OG:A DNA repair reporter (GFP) in HEK-293 MUTYH KO cells
Experimental: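 Saturation mutagenesis (NNN codon scan) of the MUTYH cDNA (521-aa nuclear isoform NM_001048174.1 / NP_001041639), stably expressed under doxycycline induction in HEK-293 MUTYH knockout cells. Cells were co-transfected with an 8OG:A-bearing GFP repair reporter plus mCherry and sorted 72 h later into GFP+ and GFP− bins, three replicates per tile. The Rosace log2 enrichment (GFP+ vs GFP−) was converted per tile to a normalized function score with synonymous variants centered at 0 and nonsense variants (codons 1-471) at -1; low-abundance variants were removed.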

Variant	8OG:A repair function score
L131H	-0.283
A6F	0.0517
A6S	-0.117
A6C	-0.117
D133R	-0.0865
T191D	-1.01
R2M	-0.169
S54T	-0.0217
L349I	0.0298
G155L	-0.574
V102P	-1.21
Q78T	-0.00936
F330P	-1.04
P306Y	-0.0217
A89T	-0.00868
A89N	-0.00625
A391W	-0.428
M462P	-0.578
M462V	-0.097
P474S	-0.00281
A238R	-1.01
A101V	-0.0177
P299K	-0.0515
G201S	-0.0385

Variant	8OG:A repair function score
G201Y	-0.227
G201D	-0.0211
G201C	-0.103
Q271T	-0.00163
W128D	-1.27
Q394N	0.483
K337V	-0.116
N329G	-0.365
N329M	-0.264
G429D	-0.382
L516N	0.0104
L516F	0.0067
S459I	-0.53
S459F	-0.45
C272A	-1.16
A445N	-0.506
G475P	-0.00826
G475T	-0.0403
V218G	-0.74
W235F	-0.292
R281Q	-0.113
R281V	-0.131
G150S	-1.26
G150Q	-1.58

Variant	8OG:A repair function score
P331E	-0.568
P331C	-0.105
V458K	-0.57
I198N	-0.562
Q159F	0.0628
L411S	-0.29
L183I	-0.112
L183F	-0.0771
L183H	0.0988
L370D	-1
S294H	-0.0171
Q232S	-0.0424
D512T	-0.0649
R98I	-0.145
R279A	-0.278
R389P	-0.583
V230C	-0.229
L83C	-0.323
L83T	-0.104
R97N	0.00607
V166C	0.0203
E256S	-0.507
F68S	-1.34
L184V	-0.238

Variant	8OG:A repair function score
L315S	-0.102
R398S	-0.426
R398I	-0.416
T406W	-0.0828
R283M	-0.0516
K481G	-0.0136
P264K	-0.048
W146S	-0.39
E178G	-0.126
M173I	0.0625
M173F	-0.014
W374S	-0.607
W374D	-0.78
L229V	0.0526
W75F	-0.21
W75S	-1.58
P34G	-0.0669
V142P	-0.569
E382W	0.0332
A67Q	-0.481
A461R	-0.632
P437V	-0.0519
P437E	0.0852
N517H	0.0285

Variant	8OG:A repair function score
P247V	-0.95
P247E	-0.987
S298V	0.00493
S298P	0.0228
K80V	-0.423
D94T	-0.178
S384Y	-0.227
H416Y	-0.438
A196N	-0.697
K333L	-0.227
K333W	-0.0431
F466E	-0.52
F466Q	-0.488
F466A	-0.4
A291E	-0.125
A291P	-0.0656
H420D	-0.651
H420W	-0.434
V465L	-0.379
V465Y	-1.23
H508C	-0.0231
H172L	-0.0966
H172Y	-0.0294
R163L	-0.128

Variant	8OG:A repair function score
L295D	-0.0433
E285H	-0.0454
E285F	0.000814
E285K	-0.0741
H57D	-0.824
S105T	-0.804
E46H	-0.0875
E46F	0.0911
E46D	0.0496
P377V	-0.171
L360W	-1.54
V261R	-0.0976
S507T	0.0162
S507N	-0.0395
Q358R	0.137
W103D	-1.19
R506D	0.0134
L268W	-0.0985
T66I	-0.0285
T66C	0.00591
T66R	-0.0902
T308R	0.0174
T308M	-0.0648
G434I	-0.0439

Variant	8OG:A repair function score
L134V	0.0486
L393I	0.0907
L393R	0.00361
V165G	-0.877
L325F	-0.00965
L325R	-0.00254
L325Q	-0.141
G205R	-0.953
A192S	-0.166
P339R	-0.0864
Q499H	0.0243
E319P	-0.228
E141L	-0.401
E342M	0.0246
R266F	-0.104
Q498N	-0.0368
Q498V	0.00262
A400C	-0.215
D300Q	-0.112
V438K	-0.0297
W85H	-2.53
A519H	-0.00545
L369K	-0.206
L369R	0.0308

Variant	8OG:A repair function score
Q252S	-0.483
Q252W	-1.04
Q386N	0.0466
S226I	-0.309
G479R	-0.0309
A115G	-0.0228
A115V	0.00984
A115E	0.0471
E385D	0.0907
G412Y	-0.721
T511C	-0.014
S515H	-0.0115
S515W	-0.0167
S515Y	0.025
F59Y	-0.161
F59M	-0.121
F59K	-1.43
A162M	-0.887
D322F	-0.0672
Q182N	-0.133
S344R	-0.0609
T424L	-0.165
T424V	-0.09
V362R	-0.236

Variant	8OG:A repair function score
R81Q	-0.483
T122A	-0.000881
T455R	-0.0505
R213H	-1.03
R213Q	-1.02
Y425D	-0.805
K422T	-0.156
G248R	-0.738
F418V	-0.269
F418C	-0.171
V114L	-0.441
G293L	-0.0631
G293Y	-0.0734
V284T	0.0102
L158F	-0.384
L158R	-1.09
T260Y	-0.385
T260A	-0.056
N503Y	-0.0151
Q43R	0.0791
A51G	-0.0113
A51P	0.142
A51C	0.0297
Q288K	-0.0373

Variant	8OG:A repair function score
H514S	-0.0171
G148Y	-0.677
G148S	-0.286
G170E	-0.0272
G444R	-0.119
A223H	-0.196
N143C	-0.216
T179F	-0.0885
T179V	-0.0453
T179W	-0.0647
R467S	-0.0606
R467I	-0.0576
R446W	-0.356
Y428G	-1.13
Y428F	-0.153
S518N	0.00686
S518L	-0.0274
S518F	-0.0829
S419H	-0.28
L361Y	-0.508
L361E	-1.08
I421Q	-0.51
L49M	0.233
L290Q	-0.0401

Variant	8OG:A repair function score
L290C	-0.0194
S270A	-0.0829
V117S	-0.427
V327H	-0.532
E341P	-0.0298
E341D	-0.0128
E341Y	-0.00525
E341S	-0.0269
E341G	-0.208
P44A	-0.142
P44T	0.166
K464Y	-0.503
K464A	-0.184
G222W	-0.349
P383Q	0.0121
P383S	-0.0364
P383I	-0.14
P383Y	-0.0911
P383L	-0.0053
A41N	0.0813
I221T	-0.889
K127T	-0.072
K127G	-0.408
Q472L	0.022

Variant	8OG:A repair function score
Q473D	-0.0165
M496Y	0.00737
C278G	-1.17
A199T	-0.214
F200H	-0.308
C216R	-0.931
C216S	-0.137
E64L	-0.0405
E64I	-0.193
S480C	-0.0352
S318F	-0.00953
G209T	-0.207
L72C	-0.229
L145Y	0.0659
A520Y	0.0286
Y100E	-1.42
K493N	0.0279
T417E	0.0158
Q233A	-0.259
G39T	0.103
G372A	-0.461
F250K	-1.03
L109W	-0.957
G171Q	-0.338

Variant	8OG:A repair function score
S343H	0.00619
L277R	-0.152
L237F	-0.257
E395C	-0.217
P320Y	-0.0806
P320Q	-0.104
T436W	-0.00145
P442L	-0.12
P442W	-0.205
A305W	-0.0242
L392M	-0.171
L257N	-1.21
L257R	-1.09
T449S	0.084
Q310Y	-0.0597
Q310C	0.0147
G326T	-0.298
G326P	-0.475
Q126V	-0.0961
E140W	-0.595
E140P	-0.438
L408A	-0.717
L408V	-0.347
Q113S	-0.0696

Variant	8OG:A repair function score
G123R	0.0952
L73I	-0.0679
L73G	-0.786
L73N	-0.718
G368D	-0.434
A137G	-0.176
Q484K	0.0117
Q484S	-0.0175
Q484W	0.00872
E287H	-0.047
R246D	-0.657
I195R	-1.02
V415F	-0.391
A405P	0.125
D96N	-0.00561
R154H	-0.851
D77P	-0.464
D77Q	-0.0294
L289I	0.00652
C311E	-0.757
M255L	-0.962
M255Q	-0.993

Reference: the supplement of paper PMC11908140
